In PMC12866175 (European journal of nuclear medicine and molecular imaging, 2021):

Assay: Radiation dosimetry and clearance kinetics from biodistribution data
Assay type: in vivo, BALB/c mice

C[C@@H](O)[C@H](NC(=O)[C@@H]1CSSC[C@H](NC(=O)[C@@H](Cc2ccccc2)NC(=O)CN2CCN(CC(=O)O)CCN(CC(=O)O)CCN(CC(=O)O)CC2)C(=O)N[C@@H](Cc2ccc(O)cc2)C(=O)N[C@H](Cc2c[nH]c3ccccc23)C(=O)N[C@@H](CCCCN)C(=O)N[C@@H]([C@@H](C)O)C(=O)N1)C(=O)O [[^225Ac]Ac-DOTA-TATE, metal not drawn]
Absorbed dose/injected activity (^213Bi, Blood): 0.0000 Gy/kBq
Accumulated activity/organ, A~ (^213Bi, Blood): 0.2345 kBq×h
Decay rate constant, λeff (^213Bi, Blood): 0.011 h⁻¹
Initial activity/organ, A○ (^213Bi, Blood): 0.0042 kBq
Absorbed dose/injected activity (^213Bi, Bone): 0.0000 Gy/kBq
Accumulated activity/organ, A~ (^213Bi, Bone): 0.9591 kBq×h
Decay rate constant, λeff (^213Bi, Bone): 0.0070 h⁻¹
Initial activity/organ, A○ (^213Bi, Bone): 0.0125 kBq
Absorbed dose/injected activity (^213Bi, Brain): 0.0000 Gy/kBq
Accumulated activity/organ, A~ (^213Bi, Brain): 0.4653 kBq×h
Decay rate constant, λeff (^213Bi, Brain): 0.0080 h⁻¹
Initial activity/organ, A○ (^213Bi, Brain): 0.0066 kBq
Absorbed dose/injected activity (^213Bi, Heart): 0.0000 Gy/kBq
Accumulated activity/organ, A~ (^213Bi, Heart): 0.5789 kBq×h
Decay rate constant, λeff (^213Bi, Heart): 0.0030 h⁻¹
Initial activity/organ, A○ (^213Bi, Heart): 0.0053 kBq
Absorbed dose/injected activity (^213Bi, Intestine): 0.0000 Gy/kBq
Accumulated activity/organ, A~ (^213Bi, Intestine): 3.6681 kBq×h
Decay rate constant, λeff (^213Bi, Intestine): 0.0210 h⁻¹
Initial activity/organ, A○ (^213Bi, Intestine): 0.1340 kBq
Absorbed dose/injected activity (^213Bi, Kidney): 0.0000 Gy/kBq
Accumulated activity/organ, A~ (^213Bi, Kidney): 7.7700 kBq×h
Decay rate constant, λeff (^213Bi, Kidney): 0.0250 h⁻¹
Initial activity/organ, A○ (^213Bi, Kidney): 0.3639 kBq
Absorbed dose/injected activity (^213Bi, Liver): 0.0000 Gy/kBq
Accumulated activity/organ, A~ (^213Bi, Liver): 28.7854 kBq×h
Decay rate constant, λeff (^213Bi, Liver): -0.0073 h⁻¹
Initial activity/organ, A○ (^213Bi, Liver): 0.0948 kBq
Absorbed dose/injected activity (^213Bi, Lung): 0.0000 Gy/kBq
Accumulated activity/organ, A~ (^213Bi, Lung): 0.9636 kBq×h
Decay rate constant, λeff (^213Bi, Lung): 0.0170 h⁻¹
Initial activity/organ, A○ (^213Bi, Lung): 0.0270 kBq
Absorbed dose/injected activity (^213Bi, Muscle): 0.0000 Gy/kBq
Accumulated activity/organ, A~ (^213Bi, Muscle): 0.3058 kBq×h
Decay rate constant, λeff (^213Bi, Muscle): 0.0050 h⁻¹
Initial activity/organ, A○ (^213Bi, Muscle): 0.0034 kBq
Absorbed dose/injected activity (^213Bi, Pancreas): 0.0000 Gy/kBq
Accumulated activity/organ, A~ (^213Bi, Pancreas): 0.5253 kBq×h
Decay rate constant, λeff (^213Bi, Pancreas): 0.0140 h⁻¹
Initial activity/organ, A○ (^213Bi, Pancreas): 0.0119 kBq
Absorbed dose/injected activity (^213Bi, Salivary): 0.000 Gy/kBq
Accumulated activity/organ, A~ (^213Bi, Salivary): 0.6047 kBq×h
Decay rate constant, λeff (^213Bi, Salivary): 0.0030 h⁻¹
Initial activity/organ, A○ (^213Bi, Salivary): 0.0056 kBq
Absorbed dose/injected activity (^213Bi, Skin): 0.000 Gy/kBq
Accumulated activity/organ, A~ (^213Bi, Skin): 0.5575 kBq×h
Decay rate constant, λeff (^213Bi, Skin): 0.0040 h⁻¹
Initial activity/organ, A○ (^213Bi, Skin): 0.0056 kBq
Absorbed dose/injected activity (^213Bi, Spleen): 0.0000 Gy/kBq
Accumulated activity/organ, A~ (^213Bi, Spleen): 1.2470 kBq×h
Decay rate constant, λeff (^213Bi, Spleen): -0.0024 h⁻¹
Initial activity/organ, A○ (^213Bi, Spleen): 0.0068 kBq
Absorbed dose/injected activity (^213Bi, Stomach): 0.0000 Gy/kBq
Accumulated activity/organ, A~ (^213Bi, Stomach): 2.4230 kBq×h
Decay rate constant, λeff (^213Bi, Stomach): 0.0190 h⁻¹
Initial activity/organ, A○ (^213Bi, Stomach): 0.0777 kBq
Absorbed dose/injected activity (^213Po, Blood): 0.0000 Gy/kBq
Accumulated activity/organ, A~ (^213Po, Blood): 0.2345 kBq×h
Decay rate constant, λeff (^213Po, Blood): 0.0110 h⁻¹
Initial activity/organ, A○ (^213Po, Blood): 0.0042 kBq
Absorbed dose/injected activity (^213Po, Bone): 0.0004 Gy/kBq
Accumulated activity/organ, A~ (^213Po, Bone): 0.9591 kBq×h
Decay rate constant, λeff (^213Po, Bone): 0.0070 h⁻¹
Initial activity/organ, A○ (^213Po, Bone): 0.0125 kBq
Absorbed dose/injected activity (^213Po, Brain): 0.0001 Gy/kBq
Accumulated activity/organ, A~ (^213Po, Brain): 0.4653 kBq×h
Decay rate constant, λeff (^213Po, Brain): 0.0080 h⁻¹
Initial activity/organ, A○ (^213Po, Brain): 0.0066 kBq
Absorbed dose/injected activity (^213Po, Heart): 0.0002 Gy/kBq
Accumulated activity/organ, A~ (^213Po, Heart): 0.5789 kBq×h
Decay rate constant, λeff (^213Po, Heart): 0.0030 h⁻¹
Initial activity/organ, A○ (^213Po, Heart): 0.0053 kBq
Absorbed dose/injected activity (^213Po, Intestine): 0.0001 Gy/kBq
Accumulated activity/organ, A~ (^213Po, Intestine): 3.6681 kBq×h
Decay rate constant, λeff (^213Po, Intestine): 0.0210 h⁻¹
Initial activity/organ, A○ (^213Po, Intestine): 0.1340 kBq
Absorbed dose/injected activity (^213Po, Kidney): 0.0015 Gy/kBq
Accumulated activity/organ, A~ (^213Po, Kidney): 7.7700 kBq×h
Decay rate constant, λeff (^213Po, Kidney): 0.0250 h⁻¹
Initial activity/organ, A○ (^213Po, Kidney): 0.3639 kBq
Absorbed dose/injected activity (^213Po, Liver): 0.0016 Gy/kBq
Accumulated activity/organ, A~ (^213Po, Liver): 28.7854 kBq×h
Decay rate constant, λeff (^213Po, Liver): -0.0073 h⁻¹
Initial activity/organ, A○ (^213Po, Liver): 0.0948 kBq
Absorbed dose/injected activity (^213Po, Lung): 0.0002 Gy/kBq
Accumulated activity/organ, A~ (^213Po, Lung): 0.9636 kBq×h
Decay rate constant, λeff (^213Po, Lung): 0.0170 h⁻¹
Initial activity/organ, A○ (^213Po, Lung): 0.0270 kBq
Absorbed dose/injected activity (^213Po, Muscle): 0.0001 Gy/kBq
Accumulated activity/organ, A~ (^213Po, Muscle): 0.3058 kBq×h
Decay rate constant, λeff (^213Po, Muscle): 0.0050 h⁻¹
Initial activity/organ, A○ (^213Po, Muscle): 0.0034 kBq
Absorbed dose/injected activity (^213Po, Pancreas): 0.0002 Gy/kBq
Accumulated activity/organ, A~ (^213Po, Pancreas): 0.5253 kBq×h
Decay rate constant, λeff (^213Po, Pancreas): 0.0140 h⁻¹
Initial activity/organ, A○ (^213Po, Pancreas): 0.0119 kBq
Absorbed dose/injected activity (^213Po, Salivary): 0.0002 Gy/kBq
Accumulated activity/organ, A~ (^213Po, Salivary): 0.6047 kBq×h
Decay rate constant, λeff (^213Po, Salivary): 0.0030 h⁻¹
Initial activity/organ, A○ (^213Po, Salivary): 0.0056 kBq
Absorbed dose/injected activity (^213Po, Skin): 0.0001 Gy/kBq
Accumulated activity/organ, A~ (^213Po, Skin): 0.5575 kBq×h
Decay rate constant, λeff (^213Po, Skin): 0.0040 h⁻¹
Initial activity/organ, A○ (^213Po, Skin): 0.0056 kBq
Absorbed dose/injected activity (^213Po, Spleen): 0.0006 Gy/kBq
Accumulated activity/organ, A~ (^213Po, Spleen): 1.2470 kBq×h
Decay rate constant, λeff (^213Po, Spleen): -0.0024 h⁻¹
Initial activity/organ, A○ (^213Po, Spleen): 0.0068 kBq
Absorbed dose/injected activity (^213Po, Stomach): 0.0005 Gy/kBq
Accumulated activity/organ, A~ (^213Po, Stomach): 2.4230 kBq×h
Decay rate constant, λeff (^213Po, Stomach): 0.0190 h⁻¹
Initial activity/organ, A○ (^213Po, Stomach): 0.0777 kBq
Absorbed dose/injected activity (^217At, Blood): 0.001 Gy/kBq
Accumulated activity/organ, A~ (^217At, Blood): 0.5594 kBq×h
Initial activity/organ, A○ (^217At, Blood): 0.0019 kBq
Absorbed dose/injected activity (^217At, Bone): 0.0003 Gy/kBq
Accumulated activity/organ, A~ (^217At, Bone): 1.0195 kBq×h
Decay rate constant, λeff (^217At, Bone): 0.0100 h⁻¹
Initial activity/organ, A○ (^217At, Bone): 0.0170 kBq
Absorbed dose/injected activity (^217At, Brain): 0.0001 Gy/kBq
Accumulated activity/organ, A~ (^217At, Brain): 0.7934 kBq×h
Decay rate constant, λeff (^217At, Brain): -0.0044 h⁻¹
Initial activity/organ, A○ (^217At, Brain): 0.0036 kBq
Absorbed dose/injected activity (^217At, Heart): 0.00001 Gy/kBq
Accumulated activity/organ, A~ (^217At, Heart): 0.2102 kBq×h
Decay rate constant, λeff (^217At, Heart): 0.0190 h⁻¹
Initial activity/organ, A○ (^217At, Heart): 0.0067 kBq
Absorbed dose/injected activity (^217At, Intestine): 0.0002 Gy/kBq
Accumulated activity/organ, A~ (^217At, Intestine): 7.2991 kBq×h
Decay rate constant, λeff (^217At, Intestine): 0.0130 h⁻¹
Initial activity/organ, A○ (^217At, Intestine): 0.1532 kBq
Absorbed dose/injected activity (^217At, Kidney): 0.0021 Gy/kBq
Accumulated activity/organ, A~ (^217At, Kidney): 12.5136 kBq×h
Decay rate constant, λeff (^217At, Kidney): 0.0190 h⁻¹
Initial activity/organ, A○ (^217At, Kidney): 0.4011 kBq
Absorbed dose/injected activity (^217At, Liver): 0.0016 Gy/kBq
Accumulated activity/organ, A~ (^217At, Liver): 32.1637 kBq×h
Decay rate constant, λeff (^217At, Liver): -0.0033 h⁻¹
Initial activity/organ, A○ (^217At, Liver): 0.1612 kBq
Accumulated activity/organ, A~ (^217At, Lung): 1.7734 kBq×h
Decay rate constant, λeff (^217At, Lung): 0.0080 h⁻¹
Initial activity/organ, A○ (^217At, Lung): 0.251 kBq
Absorbed dose/injected activity (^217At, Muscle): 0.00000 Gy/kBq
Accumulated activity/organ, A~ (^217At, Muscle): 0.1848 kBq×h
Decay rate constant, λeff (^217At, Muscle): 0.0170 h⁻¹
